Results from PMC5759053 (Glia, 2017).

Target: aquaporin-4 (AQP4) M1 isoform, expressed in HEK 293 cells (UniProt P55088-1 1-323)
Assay: co-IP

aquaporin-4 (AQP4) M1 isoform, expressed in HEK 293 cells, sequence (P55088 whole entry, canonical isoform): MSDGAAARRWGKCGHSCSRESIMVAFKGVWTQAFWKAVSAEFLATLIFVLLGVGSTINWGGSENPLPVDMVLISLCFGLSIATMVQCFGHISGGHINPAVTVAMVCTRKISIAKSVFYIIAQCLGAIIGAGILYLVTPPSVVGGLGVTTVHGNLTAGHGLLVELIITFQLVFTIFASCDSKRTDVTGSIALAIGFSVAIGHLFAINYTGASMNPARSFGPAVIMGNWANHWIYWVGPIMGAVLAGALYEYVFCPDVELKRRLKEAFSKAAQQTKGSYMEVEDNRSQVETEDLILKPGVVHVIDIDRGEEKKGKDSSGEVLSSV

B1: TRPM4, expressed in HEK 293 cells (natural protein)
chain: not shown
fold TRPM4 co-precipitated with AQP4 in SUR1+ cells against SUR1- cells: 4 fold
